{"source": "patent US20190184028A1", "about": "(Janssen / Centocor, published 2019)", "binders": {"B1": {"name": "83v10-SPION (designed binder)", "chain": "MLPAPKNLVVSEVTCDSARLSWDDPWAFYESFLIQYQESEKVGEAIVLTVPGSERSYDLTGLKPGTEYTVSIYGVHNVYKDTNMRGLPLSAIFTTGGHHHHHH", "modifications": "Cys 15 coupled to a superparamagnetic iron oxide nanoparticle (SPION)", "notes": "Cysteine variant of the EGFR-targeting FN3 domain P54AR4-83v2, many copies on a nanoparticle (50:1 molar ratio in the reaction); also called 83v10 = E15C"}, "B2": {"name": "83v12-SPION (designed binder)", "chain": "B1 chain with C15E, R19C", "modifications": "Cys 19 coupled to a superparamagnetic iron oxide nanoparticle (SPION)", "notes": "Cysteine variant of P54AR4-83v2 on a nanoparticle; also called 83v12 = R19C"}, "B3": {"name": "83v15-SPION (designed binder)", "chain": "MLPAPKNLVVSEVTEDSARLSWDDPWAFYESFLIQYQESEKVGEAIVLTVPGSERSYDLTGLKPGTEYTVSIYGVHNVYKDTNMRGLPLSAIFTTGGHHHHHHC", "modifications": "C-terminal Cys coupled to a superparamagnetic iron oxide nanoparticle (SPION)", "notes": "Cysteine variant of P54AR4-83v2 on a nanoparticle; also called 83v15 = C-terminal"}}, "note": "Residue numbers refer to the chain shown, from its start. In names and notes the source's numbering stands.", "data": [{"molecular_target": "T1, epidermal growth factor receptor (EGFR) (human, UniProt P00533 25-1210)", "T1 construct": "whole, on cells; The cell assays use human tumour lines; also called hEGFR", "assay": "flow cytometry on H292 cells", "description": "To determine the activity of the recently created FN3 domain molecule-SPION, cell targeting assays were set-up in vitro. H292 cells were dissociated from a T-150 cell culture flask using Hank's Enzyme free dissociation buffer (Invitrogen—13150-016). The cells and dissociation buffer were incubated for 15 minutes in a cell incubator. The flask was gently tapped to dissociate any residually bound cells and the buffer and cells were transferred to a 15 mL conical tube. The cells were spun at 1,000 rcf for 2 minutes. The supernatant was gently removed with careful consideration paid to not disturbing the pelleted cells. The cell pellet left over was reconstituted in 1.5 mL of phenol-red free RPMI 1640 media with 10% FBS. It was determined that the suspension contained approximately […]. 100 μL of this suspension was added to each well of a 96-well plate. FN3 domain molecule-SPION sample concentrations are listed above. From these known concentrations, FN3 domain molecule-SPION was added to each well so that the final concentration of FN3 domain molecule-SPION with the cells was 100 μg/mL Fe. Samples were plated in triplicate and incubated for 30 minutes and then purified via 3× centrifugation at 1,000×rcf and resuspension in dPBS pH 7.2. Samples were suspended in a final volume of 300 μL and moved to a clear, flat bottom 96-well plate for analysis on the Guava HTS flow cytometer. A total of 8,000 cells were counted for each sample. Following flow, population samples were analyzed using FlowJo. Each sample was gated so that only live cells were assessed for fluorescence. Histograms were obtained wherein the black peak (the peak to the left side of the graph) is the autofluorescence obtained from unlabeled H292 cells. The blue peak (the peak to the right side of the graph) corresponds to the sample title above the histogram. 83v10, 83v12 and 83v15 are positively shifted compared to the tencon25 control or blank cells (FIGS. 1A-1D). […] All samples were normalized by subtracting the blank cell autofluorescence from the mean fluorescent intensities of each sample. […]", "values": [{"binder": "B1", "binding result": "binds"}, {"binder": "B2", "binding result": "binds"}, {"binder": "B3", "binding result": "binds"}]}]}
